Substrate: CCn1c(=NN=c2sc3cc(S(=O)(=O)O)ccc3n2CC)sc2cc(S(=O)(=O)O)ccc21
Experiment: purified protein
Assay type: biochemical, Gelatoporia subvermispora
Details: 0.1 M tartrate pH 3.5, 25°C, 0.1 mM H2O2, no Mn2+, micro and ± signs lost in table, µM supported by b43

Protein | Km [µM] | kcat [s⁻¹] | kcat/Km [M⁻¹ s⁻¹]
MnP6 short variant (Gelatoporia subvermispora B; D200V) (protein) AVCSDGTRVSNAVCCDFVSLGQDLQSMVLQGDCGEDAHEIIRLTFHDAVAISRKLGPSAGGGADGSMLLFPLVEPEFAASNGIDDSVNNLIPFLSLHPTISAGDLVQFAGAVALSNCPGAPRVQFLAGRPNHTIAAIDGLIPEPQDNVTSILERFDDAGGFTPFEVVSLLASHTIARAVKVDPTLDAAPFDTTPFTFDSQIFLEVLLKGVGFPGLDNNTGEVSSPLPLGDTSTGGKDTGLMRLQSDFALAHDPRTACFWQGFVDQQEFMSQSFASAFAKLAVLGHNTDDLIDCSEVVPVPKPAVDKPTTFPATTGPQDLELSCLAERFPTLSVDPGAQETLIPHCSD | 288 ± 12 | 76 ± 1 | 263000
MnP13 (short) (Gelatoporia subvermispora B) (protein) VTCPDGVNTVANAACCPLFAVRDDIQESLFDGGKCGEEVHESLRLTFHDAIGFSPSLTAQGKFGGGGADGSIAIFESIETGYHANLGIDEIINEQATFILKHNMTAGDFIQFAGAVGVSNCPGAPQLEFLLGRPAATAPAPDKTVPEPFDTVDSILARFGDAGFSPQEVIALLASHSVAAADHVDPAIPGTPFDSTPSDFDPQIFIEVQLRGTLFPGTGGNQGEVESPYPGEIRLQSDHNLARDSRTACFWQSLANNQQQMQAQFKAAMAKLAVLGQDVSQMVDCSDVIPVPLPPATTPHIPAGLSQNNIEQACATAAFPTLPIDVGPQTSIPPVPGS | 2440 ± 200 | 93 ± 3 | 38000

Source: paper PMC4257621, “Structural implications of the C-terminal tail in the catalytic and stability properties of manganese peroxidases from ligninolytic fungi” (Acta Crystallographica Section D: Biological Crystallography, 2014)
